Assay [1] addresses T1, full-length HIS-CCT2 (human, UniProt P78371-1 1-535).
T1 construct: CCT2, second subunit of chaperonin containing TCP-1 (CCT/TRiC); The species is stated for CCT2 in general (human), not for the recombinant construct; also called recombinant full-length CCT2 protein; CCTβ; source: E. coli BL21 (DE3) and Rosetta, purified (Ni-NTA, SEC)
T1 sequence (looked up): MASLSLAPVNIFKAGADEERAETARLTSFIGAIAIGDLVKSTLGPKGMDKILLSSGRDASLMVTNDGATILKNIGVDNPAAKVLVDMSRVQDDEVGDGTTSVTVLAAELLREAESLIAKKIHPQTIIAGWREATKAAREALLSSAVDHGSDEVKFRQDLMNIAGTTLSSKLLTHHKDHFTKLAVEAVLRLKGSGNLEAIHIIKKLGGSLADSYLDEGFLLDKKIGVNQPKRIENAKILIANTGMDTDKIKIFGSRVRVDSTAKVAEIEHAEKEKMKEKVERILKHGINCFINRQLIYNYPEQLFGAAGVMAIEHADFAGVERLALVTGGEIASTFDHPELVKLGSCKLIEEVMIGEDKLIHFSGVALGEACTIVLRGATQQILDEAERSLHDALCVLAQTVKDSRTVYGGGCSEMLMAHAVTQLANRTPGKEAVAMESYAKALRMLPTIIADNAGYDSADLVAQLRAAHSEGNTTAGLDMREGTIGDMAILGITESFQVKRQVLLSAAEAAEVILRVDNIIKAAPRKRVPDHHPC
In words: pull-down; 0.1-50 nmol biotin-CT20p (or biotin alone) mixed with 0.1 nmol recombinant CCT2 protein in 20 mM Tris-HCl, 3 h at room temperature, then overnight at 4°C with streptavidin-agarose beads; immunoblot for CCT2. To be noted: both partners purified. In general terms: In western blotting, separated proteins are transferred to a membrane and probed.

Assay [2] has as its target T2, CCT2(17-526) (human, UniProt P78371-1 17-526).
T2 construct: CCT2 truncation that retains more of the equatorial domain; A TEV protease site replaced the thrombin site between GST and CCT2
T2 sequence (looked up): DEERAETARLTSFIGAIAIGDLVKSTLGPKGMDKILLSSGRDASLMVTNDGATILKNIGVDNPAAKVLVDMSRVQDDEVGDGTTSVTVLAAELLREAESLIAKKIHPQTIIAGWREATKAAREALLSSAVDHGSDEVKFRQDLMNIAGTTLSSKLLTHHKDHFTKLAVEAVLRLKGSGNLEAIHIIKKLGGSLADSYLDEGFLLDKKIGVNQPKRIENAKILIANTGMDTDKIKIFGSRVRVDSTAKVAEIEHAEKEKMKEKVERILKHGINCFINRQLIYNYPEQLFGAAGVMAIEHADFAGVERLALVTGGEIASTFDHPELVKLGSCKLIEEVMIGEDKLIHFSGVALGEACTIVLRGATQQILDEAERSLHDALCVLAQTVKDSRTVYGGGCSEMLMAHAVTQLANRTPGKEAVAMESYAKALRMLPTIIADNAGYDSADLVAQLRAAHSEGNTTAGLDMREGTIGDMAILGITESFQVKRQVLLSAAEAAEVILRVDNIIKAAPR
The description is as above. To be noted: both partners purified.

These results are taken from PMC9520665, “Chaperonin containing TCP-1 (CCT/TRiC) is a novel therapeutic and diagnostic target for neuroblastoma” (Frontiers in Oncology, 2022).

Where no end group is shown, it is not given here.

B1: biotinylated CT20p (peptide)
peptide: VTIFVAGVLTASLTIWKKMG
modifications: also: biotin, position not given here
notes: 20 amino acid amphipathic peptide derived from the C-terminus of the apoptotic protein Bax; also called biotin-CT20p; source: synthetic peptide, commercially synthesized (BioPeptides Inc)
Regarding B1, the binding result in assay [1] and in assay [2] was “binds” in each case.
